According to article PMC7791067, “PLPP/CIN-mediated NF2-serine 10 dephosphorylation regulates F-actin stability and Mdm2 degradation in an activity-dependent manner” (Cell Death & Disease, 2021):

Biological target: T1, full-length recombinant human NF2, phosphorylated by PKAc (human, UniProt P35240 1-595, phosphoserine at S10 and S518 (phosphorylated by PKAc in vitro))
T1 sequence (looked up): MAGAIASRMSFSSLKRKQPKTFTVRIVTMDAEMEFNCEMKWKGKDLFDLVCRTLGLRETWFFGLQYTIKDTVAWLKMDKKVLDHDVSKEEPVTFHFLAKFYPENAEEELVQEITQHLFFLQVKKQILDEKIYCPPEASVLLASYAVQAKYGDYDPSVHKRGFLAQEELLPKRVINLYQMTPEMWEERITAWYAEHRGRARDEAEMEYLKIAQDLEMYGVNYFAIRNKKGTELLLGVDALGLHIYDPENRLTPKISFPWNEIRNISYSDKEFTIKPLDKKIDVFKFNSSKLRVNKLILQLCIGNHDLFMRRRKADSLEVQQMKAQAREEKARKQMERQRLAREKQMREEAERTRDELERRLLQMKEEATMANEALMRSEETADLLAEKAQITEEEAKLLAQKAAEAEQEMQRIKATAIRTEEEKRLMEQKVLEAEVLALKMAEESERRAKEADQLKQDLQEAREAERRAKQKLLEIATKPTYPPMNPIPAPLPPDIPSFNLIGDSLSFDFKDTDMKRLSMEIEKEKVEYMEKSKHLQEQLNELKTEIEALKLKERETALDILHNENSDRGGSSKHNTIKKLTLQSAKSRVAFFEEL
Experiment: cell-based or functional assay

- NF2-S10 phosphorylation (western blot) in the in vitro phosphatase assay with recombinant proteins, after PKAc: ~0.63 fold of vehicle level
B1: recombinant human PLPP/CIN (enzyme, UniProt Q96GD0 1-296, looked up)
chain: MARCERLRGAALRDVLGRAQGVLFDCDGVLWNGERAVPGAPELLERLARAGKAALFVSNNSRRARPELALRFARLGFGGLRAEQLFSSALCAARLLRQRLPGPPDAPGAVFVLGGEGLRAELRAAGLRLAGDPSAGDGAAPRVRAVLVGYDEHFSFAKLREACAHLRDPECLLVATDRDPWHPLSDGSRTPGTGSLAAAVETASGRQALVVGKPSPYMFECITENFSIDPARTLMVGDRLETDILFGHRCGMTTVLTLTGVSRLEEAQAYLAAGQHDLVPHYYVESIADLTEGLED
